Results taken from patent publication US11541101B1, “LEMD3 antagonizes TGF-beta-driven Smad2/3 transcription in a stiffness-dependent fashion in both the nucleus and cytosol” (University of Virginia Patent Foundation, priority 2018, dated 2023).

What was measured:
Type in all cases: cell-based, human
Smad2/3-Smad4 complexes = test: Smad2/3-Smad4 PLA; details: over-expression, 500 μg/mL TGFβ, 1 kPa hydrogels, p=0.0081
Description: In vitro PLA: Protein-protein PLA was per-formed with antibody pairs listed in Table 4 as described in (42) with the following modifications: cells were plated on FN-coated glass or hydrogels (Matrigen, Brea, Calif.). All primary antibody in-cubations were performed for 16-24 hours at 4 C and cells were counter-stained with 1:40 phalloidin-488 or phalloidin-546 in 1×PBS for 30 minutes at room temperature and/or further processed for IF imaging using the procedure recommended in Sigma's PLA Resource Center. […] Imaging and analysis were performed as described for high-resolution ex vivo PLA signals except that no tissue autofluorescence signal was measured or needed to be subtracted and, when appro-priate, other IF signal (e.g. FLAG) were measured in parallel. […] Instead the PLA signal was quantified as the PLA volume divided by the nuclear intensity for each image. Each data point represents at least 3 unique surfaces with at least 12 cells measured per surface. For Smad2/3-Smad4 experiments, only two independent hydrogels were analyzed for the “CTF 500 μg/mL” and “Neon 500 μg/mL” groups due to loss of hydrogels during processing. Each bar in FIG. 5D represents the mean with standard error of the mean for all the cells analyzed from that condition.

PPM1α = PPM1α PLA; details: glass
Description: In vitro PLA: Protein-protein PLA was per-formed with antibody pairs listed in Table 4 as described in (42) with the following modifications: cells were plated on FN-coated glass or hydrogels (Matrigen, Brea, Calif.). All primary antibody in-cubations were performed for 16-24 hours at 4 C and cells were counter-stained with 1:40 phalloidin-488 or phalloidin-546 in 1×PBS for 30 minutes at room temperature and/or further processed for IF imaging using the procedure recommended in Sigma's PLA Resource Center. For all recombinant LEMD3 and C-terminal fragment experiments, HFFs were electroporated as above and allowed to culture for 24 hours on 10 μg/mL fibronectin coated glass or hydrogels before fixation. For LEMD3-phospho-Smad2/3, LEMD3-Smad2/3+TGFβ and for Smad2/3-Smad4 PLA assays: cells were treated 90 minutes before fixation with 50 μg/mL for LEMD3- and CTF-Smad2/3 assays, 100 μg/mL TGFβ for LEMD3-phospho-Smad2/3 experiments and 500 μg/mL TGFβ for Smad2/3-Smad4 experiments. […] Imaging and analysis were performed as described for high-resolution ex vivo PLA signals except that no tissue autofluorescence signal was measured or needed to be subtracted and, when appro-priate, other IF signal (e.g. FLAG) were measured in parallel. […] Instead the PLA signal was quantified as the PLA volume divided by the nuclear intensity for each image. Each data point represents at least 3 unique surfaces with at least 12 cells measured per surface. For Smad2/3-Smad4 experiments, only two independent hydrogels were analyzed for the “CTF 500 μg/mL” and “Neon 500 μg/mL” groups due to loss of hydrogels during processing. Each bar in FIG. 5D represents the mean with standard error of the mean for all the cells analyzed from that condition.

Smad2/3 = test: V5-Smad2/3 PLA with recombinant LEMD3 / CTF
Description: In vitro PLA: Protein-protein PLA was per-formed with antibody pairs listed in Table 4 as described in (42) with the following modifications: cells were plated on FN-coated glass or hydrogels (Matrigen, Brea, Calif.). All primary antibody in-cubations were performed for 16-24 hours at 4 C and cells were counter-stained with 1:40 phalloidin-488 or phalloidin-546 in 1×PBS for 30 minutes at room temperature and/or further processed for IF imaging using the procedure recommended in Sigma's PLA Resource Center. For all recombinant LEMD3 and C-terminal fragment experiments, HFFs were electroporated as above and allowed to culture for 24 hours on 10 μg/mL fibronectin coated glass or hydrogels before fixation. For LEMD3-phospho-Smad2/3, LEMD3-Smad2/3+TGFβ and for Smad2/3-Smad4 PLA assays: cells were treated 90 minutes before fixation with 50 μg/mL for LEMD3- and CTF-Smad2/3 assays, 100 μg/mL TGFβ for LEMD3-phospho-Smad2/3 experiments and 500 μg/mL TGFβ for Smad2/3-Smad4 experiments. For FLAG post-staining of PLA processed tissues, cells were blocked with unlabelled AffiniPure donkey anti-rabbit antibodies (Jackson ImmunoResearch, West Grove, Pa.) at a 1:10 dilution in 1×PBS-T at room temperature for 1 hour before further IF processing with 1:1000 rabbit anti-FLAG (#F7425, Sigma-Aldrich, Darmstadt, Germany) for 1 hour in PBS-T at room temperature. Following three washes with PBS-T for 5 minutes, each sample was stained with 1:500 goat anti-rabbit 546 in PBS-T for 1 hour at room temperature, washed again and then counter-stained as above. For V5 post-staining of PLA processed samples, cells were incubated with 1:200 647 labelled anti-V5 antibody (R&D Systems, Minneapolis, Minn.) diluted in PBS-T at room tem-perature for 1 hour before washing three times in PBS-T for 5 minutes each and then counter-stained as above. Imaging and analysis were performed as described for high-resolution ex vivo PLA signals except that no tissue autofluorescence signal was measured or needed to be subtracted and, when appro-priate, other IF signal (e.g. FLAG) were measured in parallel. For cells on Matrigen HTS plates (FIGS. 2c & 2d), the confluence of cells prevented identifying individual cell boundaries. Instead the PLA signal was quantified as the PLA volume divided by the nuclear intensity for each image. Each data point represents at least 3 unique surfaces with at least 12 cells measured per surface. For Smad2/3-Smad4 experiments, only two independent hydrogels were analyzed for the “CTF 500 μg/mL” and “Neon 500 μg/mL” groups due to loss of hydrogels during processing. Each bar in FIG. 5D represents the mean with standard error of the mean for all the cells analyzed from that condition.

Smad3 phosphorylation = test: phospho-Smad3 to total Smad3 ratio by western blot; details: electroporation of TGFβ dosed HFFs on tissue culture plastic

B1: CTF: consensus C-terminal fragment of LEMD3 (SEQ ID NO: 25), expressed from pFLAG-LEMD3p.Δ21-669-V5 (protein, listed as Homo sapiens)
chain: MAAAAASAPQQLSDEELFSQRDSLIQPHDRKKMKKVWDRAVDFLAANESRVRTETRRIGGADFLVWRWIQPSASCDKILVIPSKVWQGQAFHLDRRNSPPNSLTPCLKIRNMFDPVMEIGDQWHLAIQEAILEKCSDNDGIVHIAVDKNSREGCVYVKCLSPEYAGKAFKALHGSWFDGKLVTVKYLRLDRYHHRFPQALTSNTPLKPSNKHMNSMSHLRLRTGLTNSQGSS
modifications: FLAG and V5 tags
- TGFβ-driven increase in Smad2/3-Smad4 complexes (Smad2/3-Smad4 complexes): significantly abrogated
- PPM1α interactions, total (PPM1α; vs Neon Only control, p<0.0001): bound PPM1α
- PPM1α interactions, cytoplasm (PPM1α; vs control, p=0.0081): bound PPM1α significantly above background
- PPM1α interactions, nucleus (PPM1α; vs control, p=0.2569): only endogenous LEMD3 was found to significantly bind PPM1α in the nucleus
- overall CTF-Smad2/3 interactions versus electroporation control fibroblasts (Smad2/3; 1 kPa p<0.0001, 25 kPa p=0.0227): significantly more overall CTF-Smad2/3 interactions
- CTF-Smad2/3 interactions, cytoplasm (Smad2/3; 1 kPa relative to 25 kPa hydrogels, p<0.0001): significantly more Smad2/3 interactions
- CTF-Smad2/3 interactions overall (Smad2/3; 1 kPa relative to 25 kPa hydrogels, p<0.0001, FIG. 5B): significantly more Smad2/3 interactions
- CTF-Smad2/3 interactions, nucleus (Smad2/3; 1 kPa relative to 25 kPa hydrogels, p=0.0082): significantly more Smad2/3 interactions
- fraction of CTF-Smad2/3 interactions in the nucleus (Smad2/3; depending on stiffness, FIG. 5B): 40-55%
- pSmad3/Smad3 ratio (Smad3 phosphorylation): decreased the pSmad3/Smad3 ratio
